Source: patent publication US20210371529A1
Where two headings read alike, the source gives them in different places.

Columns and labels:
[1] = target: human LAG-3 overexpressed on HEK293 cells (human) (UniProt P18627); experiment: flow cytometry on 293-hLAG-3 cells, MFI curve
[2] = target: human LAG-3-His (human) (UniProt P18627); experiment: BLI (ForteBio), antibody on AHQ tip, human LAG-3-His 100 nM in solution, univalent
[3] = target: LAG-3 on activated human CD4+ T cells (human) (UniProt P18627); experiment: flow cytometry on activated human CD4+ T cells, MFI curve
[4] = target: rhLAG3 protein (huFc) (human) (UniProt P18627); experiment: flow cytometry, blocking of rhLAG3 (huFc) 20 nM binding to HLA-DR on CHO-DR cells
[5] = target: human LAG-3 overexpressed on HEK293 cells (human) (UniProt P18627); experiment: flow cytometry on 293-hLAG-3 cells, MFI curve; remark: listed apart in the source
[6] = target: human LAG-3-His (human) (UniProt P18627); experiment: BLI (ForteBio), antibody on AHQ tip, human LAG-3-His 100 nM in solution

Chain of human LAG-3-His (human) (P18627 23-450 limits assumed): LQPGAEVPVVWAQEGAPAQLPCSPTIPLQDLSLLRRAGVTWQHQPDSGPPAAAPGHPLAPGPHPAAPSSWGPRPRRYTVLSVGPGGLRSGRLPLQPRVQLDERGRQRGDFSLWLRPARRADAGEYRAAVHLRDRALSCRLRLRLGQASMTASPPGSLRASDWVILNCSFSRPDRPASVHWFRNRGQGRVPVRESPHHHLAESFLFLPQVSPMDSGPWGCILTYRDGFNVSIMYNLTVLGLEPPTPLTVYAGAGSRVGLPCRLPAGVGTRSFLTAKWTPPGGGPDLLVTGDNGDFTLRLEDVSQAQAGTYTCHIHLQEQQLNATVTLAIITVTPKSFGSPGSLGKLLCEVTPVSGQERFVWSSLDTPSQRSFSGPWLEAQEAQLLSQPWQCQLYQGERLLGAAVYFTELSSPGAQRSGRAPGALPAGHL
Chain of human LAG-3 overexpressed on HEK293 cells (human) (P18627 23-525): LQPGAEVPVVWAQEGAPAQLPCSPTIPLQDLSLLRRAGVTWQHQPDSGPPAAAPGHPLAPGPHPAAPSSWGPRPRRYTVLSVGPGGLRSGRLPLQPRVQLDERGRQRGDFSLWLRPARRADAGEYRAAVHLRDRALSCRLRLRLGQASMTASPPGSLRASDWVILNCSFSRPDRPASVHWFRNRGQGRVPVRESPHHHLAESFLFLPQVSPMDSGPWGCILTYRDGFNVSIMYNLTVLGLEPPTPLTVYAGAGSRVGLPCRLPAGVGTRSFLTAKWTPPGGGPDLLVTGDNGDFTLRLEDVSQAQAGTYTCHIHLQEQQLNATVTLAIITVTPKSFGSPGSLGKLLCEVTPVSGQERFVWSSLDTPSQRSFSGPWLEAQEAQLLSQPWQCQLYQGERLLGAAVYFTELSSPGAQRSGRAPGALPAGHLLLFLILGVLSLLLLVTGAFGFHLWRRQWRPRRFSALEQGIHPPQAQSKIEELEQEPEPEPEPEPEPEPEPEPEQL
Chain of rhLAG3 protein (huFc) (human) (P18627 23-450 limits assumed): as the sequence (P18627 23-450 limits assumed) above
Chain of LAG-3 on activated human CD4+ T cells (human) (P18627 23-525): as the sequence (P18627 23-525) above

An EC50 [1] of 3.34 nM, a Kd [2] of 9.02 nM and an EC50 [3] of 0.036 nM were found for 25F7 (antibody) in this work. The IC50 [4] was 5.14 nM, the EC50 [5] was 2.59 nM and the koff [6] was 0.00101 s⁻¹. The kon [6] was 112000 M⁻¹ s⁻¹.
